B1: KRT71 (parent)
chain: ELRNVQDVVEDYKKRYEEEINKRT

Variants of: B1
Assay: protein stability index of a GFP-peptide fusion (GPS, HEK-293T) (PSI 1-6); higher = more stable
Details: c terminus: a fixed tail appended
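Also: lentivirally expressed fusions sorted by FACS into six bins by GFP to DsRed ratio, PSI derived from sequencing read proportions per bin multiplied by bin number.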

Protein stability index of substitutions, site by site:
N21: H 4.26; Y 3.65; R 3.92; K 4.54; M 2.79; A 4.15; S 4.27
K14: Y 3.47; V 4.45; R 3.51; E 4.51; L 2.97; C 3.3; N 3.58
R3: W 3.47; L 2.37; F 4.32; H 2.78; T 3.35; Q 4.13
D11: A 3.55; T 3.63; Q 4.23; M 3.31; R 3.29; P 3.44; L 3.95; K 2.82
V5: D 4.58; I 3.88; N 3.59; Q 4.24; C 3.98; Y 3.64
I20: L 4.32; Q 3.74; V 4.2; H 4.07; C 4.07; G 4.05; E 3.6; S 4.25; R 3.22
E19: H 3.73; Q 2.54; A 3.94; M 2.73; K 3.21; G 3.65; N 2.71
E17: Q 3.8; F 3.93; L 4.43; G 3.1; Y 3.15; C 3.24; R 4.12
V9: A 3.69; E 4.64; Y 3.62; F 3.49; G 4.2; D 4.93; L 3.03
T24: R 4.41; W 3.62; N 3.14; P 4.39; A 3.08; D 4.64; K 4.43
K22: Y 3.43; R 4.21; T 4.15; M 3.92; W 3.9; H 3.68; G 3.27; I 3.28; C 4.19
R15: I 4.28; Y 3.43; S 3.63; K 3.22; L 4.86; V 3.05; H 2.8; W 3.67; T 4.68; F 3.67
E18: N 3.31; A 3.54; T 3.93; G 3.16; F 3.42; L 2.91; R 4.26; P 3.98; Q 3.3
D7: Y 3.06; P 3.17; S 3.6; I 2.62; V 3.23; N 3.36
K13: C 2.71; S 3.51; A 4.07; M 3.12; Y 3.2
N4: K 4.51; T 4.08; H 4.45; I 4.37; R 4.48; P 4.67; W 3.17; E 4.45
Q6: G 3.36; Y 3.18; T 3.4; H 3.15; A 3.85; N 4.58; C 2.77; W 3.41; F 4.1
Y12: Q 4.12; K 3.08; F 3.85; R 3.66; N 4.89
E1: F 4.14; Q 4.03; N 3.49; C 2.23
R23: Q 3.83; T 4.69; M 3.03; A 3.34; L 3.63; Y 3.98; C 3.84; E 4.63
E10: K 3.14; A 3.17; I 3.54; N 4.22; V 3.11; P 3.41; S 3.65; W 2.43; M 3.57; T 4.45
V8: G 3.49; C 3.77; I 3.45; Q 4.19; E 3.98
L2: C 3.53
Y16: D 4.38; E 4.33; F 2.96; W 2.68; M 4.22; H 3.75; A 4.43

Reference: the supplement of paper PMC10567573
